Reference: article PMC7145534, “Are the intrinsically disordered linkers involved in SSB binding to accessory proteins?” (Nucleic Acids Research, 2019)
“Also recorded” adds a separate entry of the source.

Legend:
E. coli RecO = assay: ITC of SSB tetramers (apo) binding to RecO; set-up: species or system Escherichia coli
Procedure: The concentrations were determined thereafter.

(dT)70 = assay: ITC of SSB tetramers with (dT)70; format: binding
Procedure: Isothermal titration calorimetry (ITC) experiments were performed using a VP-ITC titration microcalorimeter (Malvern Panalytical, Malvern, UK) ([68]). All proteins and oligonucleotides were dialyzed extensively against the indicated buffer and cleared by centrifugation at 14 000 rpm for 15 min at 4°C. The concentrations were determined thereafter. For experiments with the SSB-Ct peptides and SIPs, 40–50 μM peptides were titrated into 1–2 μM SIPs in Buffer BTP at pH 8.0 and 50 mM NaCl. For experiments with the full-length SSB and its deletion mutants and SIPs, SSB tetramer (8–10 μM) was titrated into SIP (1 μM) in Buffer BTP at pH 7.0 and 200 mM NaCl. The heats of dilution were obtained by blank titrations in which the titrant species is titrated into the buffer, and corrections for heats of dilution were applied.
RecO (1 µM) in buffer BTP (pH 7.0, 200 mM NaCl) at 15° C and (b) 25° C.
(f) (dT)70 (15 µM) is titrated into

RecO = conditions: for sedimentation coefficient, SSB alone: 0.35 μM tetramer, BTP pH 7.0, 200 mM NaCl, 25°C, no RecO
Procedure: Sedimentation velocity experiments were performed with an Optima XL-A analytical ultracentrifuge and An50Ti rotor (Beckman Coulter, Fullerton, CA, USA) at 42 000 rpm (25°C) as described ([50]). The concentrations used were 1–2 μM SIPs, 0.3–0.5 μM SSB tetramers, while monitoring absorbance at 230 or 280 nm. The experiments with SSB-Ct peptides were performed in Buffer BTP at pH 8.0 and 50 mM NaCl. The experiment with SSB proteins and the deletion constructs were performed in Buffer BTP at pH 7.0 and 200 mm NaCl. The sample (380 μl) and buffer (394 μl) were loaded into each sector of an Epon charcoal-filled two-sector centerpiece. Absorbance data were collected by scanning the sample cells at intervals of 0.003 cm. Data were analyzed using SEDFIT, to obtain c(s) distributions ([70]). The c(s) distribution function defines the populations of species with different sedimentation rates and represents a variant of the distribution of Lamm equation solutions ([70]). The density and viscosity of the experimental buffers at 25°C were determined using [sequence] […] The partial specific volume of (dT)70 used was 0.56 ml/g. In the experiments involving more than one species, the partial specific volumes of complexes were calculated assuming additivity using Equation (4), where = number of moles of species ‘i’, = molecular weight of species ‘i’, and = partial specific volume of each species i.(4)
RecO binding to SSB tetramers with portions of the IDL deleted. […] (C) The results of sedimentation velocity experiments, plotted as the c(s) distribution ([70]) for each SSB construct (0.35 μM tetramer) in the absence (black lines) and presence (red lines) of 2.5 molar excess of RecO (3.5 μM) per C-terminus.

χ = assay: ITC of SSB-A binding to χ; set-up: species or system Escherichia coli; conditions: Buffer T pH 8.1, 200 mM NaCl, 25°C
Procedure: The concentrations were determined thereafter. […]
Figure S7. Results from various control ITC titrations of (a) SSB-A and RecO at 15°C and (b) 25°C, (c) SSB-A and c, (d) P65 and (dT)70, (e) (dT)70 and SSB-A, and (f) (dT)70 and wtSSB. (a) SSB-A (10 µM), a homo-tetrameric SSB variant containing an additional six amino acids, TGASGT, at the C-terminus of each subunit, was titrated into […]
(5.9 µM) was titrated into c (1 µM) in buffer T (10 mM Tris-HCl, pH 8.1, 200 mM NaCl, […]
0.1 mM EDTA) at 25° C. […] (d) dT70 (60 µM) was […]
titrated into P65 (2 µM) in buffer BTP (pH 7.0, 20 mM NaCl) at 25° C. P65, the full-length […]
(dT)70. (e) (dT)70 (15 µM) was titrated into SSB-A (1 µM) in buffer T at 25° C. SSB-A (also on this page, place not known: 15°C 25°C. 25°C. 25°C. 25°C. 2.00 kcal mol-1 of injectant kcal mol-1 of injectant [SSB-A]tot/[RecO]tot kcal mol-1 of injectant [SSB-A]tot/[c]tot (f)(d))

[1] = molecular target: Escherichia coli PriC (E. coli) (UniProt P23862); assay: AUC; sedimentation velocity, 42 000 rpm, 25°C; PriC at 2 μM, without and with 30-fold excess P15; buffer BTP pH 8.0, same conditions as the ITC of PriC
PriA = conditions: previous study; cited from earlier work
Procedure: All binding reactions were performed under identical solution conditions, although additional experiments were performed at a lower [NaCl] for PriC as indicated, ...

DNA Pol III (χ) = conditions: cited from earlier work
From the text: When DNA is bound to the DBD, the acidic tip no longer interacts with the DBD and thus is more available to interact with a SIP. This is supported by the observation that ΔH = −6.0 ± 0.1 kcal/mol for RecO binding to the SSBΔ120-166–(dT)70 complex, which should not contain contributions from the acidic tip-DBD intramolecular interactions.

[2] = molecular target: T1, Escherichia coli RecO protein (E. coli, UniProt P0A7H3 1-242); assay: ITC; P15 and RecO; buffer BTP pH 8, 200 mM NaCl, 25°C; N fixed to 1; conditions: both partners purified
T1 construct: E. coli RecO, recombination mediator of the RecF pathway; source: E. coli BL21(DE3)pLysS, plasmid pMCSG7, purified (Ni-NTA, HiTrap Heparin HP) after His-tag cleavage with TEV protease
T1 sequence (looked up): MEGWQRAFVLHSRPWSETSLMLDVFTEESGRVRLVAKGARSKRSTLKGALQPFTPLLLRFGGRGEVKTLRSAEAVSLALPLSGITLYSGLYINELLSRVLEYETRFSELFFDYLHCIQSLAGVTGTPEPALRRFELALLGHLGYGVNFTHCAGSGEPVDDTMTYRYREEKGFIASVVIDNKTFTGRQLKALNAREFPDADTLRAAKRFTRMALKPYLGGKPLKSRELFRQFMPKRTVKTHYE

[3] = molecular target: T1, Escherichia coli RecO protein; assay: ITC; P15 and RecO; buffer BTP pH 7.0, 200 mM NaCl, 15°C; N fixed to 1; conditions: both partners purified
[4] = molecular target: T1, Escherichia coli RecO protein; assay: ITC; P15 and RecO; buffer BTP pH 7.0, 200 mM NaCl, 25°C; N fixed to 1; conditions: both partners purified
[5] = molecular target: T1, Escherichia coli RecO protein; assay: ITC; P15 and RecO; buffer BTP pH 7.0, 200 mM NaCl, 37°C; N fixed to 1; conditions: both partners purified
Escherichia coli PriC [6] = molecular target: T2, Escherichia coli PriC (E. coli, UniProt P23862 1-175); assay: ITC; SSB-Ct peptide titrated into PriC; buffer BTP pH 8.0, 10 mM NaCl, 25°C; N fixed to 1 for the values of Table 1; conditions: both partners purified
T2 construct: E. coli PriC, replication restart protein; source: E. coli BL21(DE3), plasmid pET11a-EcoPriC (pAM001), purified (Macro-Prep High S, HiPrep Sephacryl S-200 HR)
T2 sequence (looked up): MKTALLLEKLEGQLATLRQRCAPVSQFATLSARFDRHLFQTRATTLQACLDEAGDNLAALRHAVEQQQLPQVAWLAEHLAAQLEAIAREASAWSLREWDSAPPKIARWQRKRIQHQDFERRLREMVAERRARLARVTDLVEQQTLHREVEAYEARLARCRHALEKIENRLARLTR

Escherichia coli PriC [7] = molecular target: T2, Escherichia coli PriC; assay: as above; conditions: both partners purified; remark: listed apart in the source
[8] = molecular target: T1, Escherichia coli RecO protein; assay: ITC; SSB-Ct peptide (40–50 μM) titrated into SIP (1–2 μM); buffer BTP (20 mM Bis-Tris Propane, 25% glycerol, 1 mM TCEP) pH 8.0, 50 mM NaCl, 25°C; observed association constants; N fixed to 1 for the values of Table 1; conditions: both partners purified
Escherichia coli PriA [9] = molecular target: T3, Escherichia coli PriA (E. coli, UniProt P17888 1-732); assay: as above; conditions: both partners purified
T3 construct: E. coli PriA, replication restart protein

[10] = molecular target: T4, chi (χ) subunit of DNA polymerase III (E. coli, UniProt P28905 1-147); assay: as above; conditions: both partners purified
T4 construct: E. coli DNA polymerase III chi subunit; also called χ protein; DNA Pol III (χ)

[11] = molecular target: T1, Escherichia coli RecO protein; assay: as above; conditions: both partners purified; remark: listed apart in the source
Escherichia coli PriA [12] = molecular target: T3, Escherichia coli PriA; assay: as above; conditions: both partners purified; remark: listed apart in the source
[13] = molecular target: T4, chi (χ) subunit of DNA polymerase III; assay: as above; conditions: both partners purified; remark: listed apart in the source
[14] = molecular target: P65 (SSB C-terminal peptide) (Escherichia coli, UniProt P0AGE0 114-178); assay: ITC; no detectable interaction; ITC; buffer BTP (20 mM Bis-Tris propane, 25% v/v glycerol, 1 mM TCEP), pH 7.0, 200 mM NaCl, 25 C for SSB experiments; buffer/pH of individual (dT)70 titrations; conditions: single-stranded
SSB (wtSSB) = SSB (wtSSB) (Escherichia coli, UniProt P0AGE0 2-178); assay: ITC; 1:1 complex at 200 mM NaCl, (SSB)65 mode; (dT)70 (15 uM) titrated with SSB; ITC; buffer BTP (20 mM Bis-Tris propane, 25% v/v glycerol, 1 mM TCEP), pH 7.0, 200 mM NaCl, 25 C for SSB experiments; buffer/pH of individual (dT)70 titrations; conditions: protein: recombinant; chain copies: 4; single-stranded
SSB-A = SSB-A (Escherichia coli, UniProt P0AGE0 2-178+=TGASGT, internal_change); assay: ITC; (dT)70 titrated with SSB-A; stoichiometric binding, 1:1; dH similar to wtSSB (-131 kcal/mol in earlier work); ITC; buffer BTP (20 mM Bis-Tris propane, 25% v/v glycerol, 1 mM TCEP), pH 7.0, 200 mM NaCl, 25 C for SSB experiments; buffer/pH of individual (dT)70 titrations; conditions: protein: recombinant; chain copies: 4; single-stranded
[15] = molecular target: Escherichia coli RecO protein (E. coli) (UniProt P0A7H3); assay: ITC; apo SSBΔ120-166 tetramer and RecO; 10°C; N fixed to 4 in Table 3
[16] = molecular target: Escherichia coli RecO protein (E. coli) (UniProt P0A7H3); assay: ITC; SSB tetramer–(dT)70 complex (9–10 μM) titrated into RecO (1 μM); buffer BTP pH 7.0, 200 mM NaCl, 25°C; N fixed to 4, K and ΔH per C-terminus
[17] = molecular target: Escherichia coli RecO protein (E. coli) (UniProt P0A7H3); assay: ITC; SSB tetramer (10 µM) titrated into RecO (1 µM); buffer BTP pH 7.0, 200 mM NaCl, 10°C; N floated, N = RecO per SSB tetramer; ΔH per C-terminus
[18] = molecular target: Escherichia coli RecO protein (E. coli) (UniProt P0A7H3); assay: ITC; apo SSB tetramer (9–10 μM) titrated into RecO (1 μM); buffer BTP pH 7.0, 200 mM NaCl, 25°C; N fixed to 4 RecO per tetramer, K and ΔH per C-terminus
[19] = molecular target: the molecule itself; assay: AUC; sedimentation velocity, 42 000 rpm, 25°C; SSB construct 0.35 μM tetramer alone and with 3.5 μM RecO (2.5 molar excess per C-terminus); buffer BTP pH 7.0, 200 mM NaCl

## wtSSB: E. coli single strand DNA binding protein, homo-tetramer, wild type
E. coli RecO; apo, 25°C, BTP pH 7, 200 mM NaCl
  K: (1.5 ± 0.2) × 10^6 M^−1
(dT)70; BTP pH 7.0, 200 mM NaCl
  binding to (dT)70 by ITC: binds stoichiometrically
RecO
  sedimentation coefficient, SSB alone: 1.4 S
RecO; 10-fold molar excess of RecO to SSB tetramer
  complex formation with RecO: RecO forms complexes with wtSSB

## SSB-A: additional six amino acids, TGASGT, extending the C-terminus of wtSSB
E. coli RecO; absence of ssDNA, BTP pH 7.0, 200 mM NaCl, 15°C and 25°C
  binding to RecO by ITC: not interact with RecO; also recorded: eliminates binding to RecO
χ
  binding to χ by ITC: does not show binding
(dT)70; Buffer T pH 8.1, 200 mM NaCl, 25°C
  binding to (dT)70 by ITC: binds stoichiometrically

## Escherichia coli PriC (from UniProt P23862 1-175) (natural protein)
[1]
  percent of the monomeric species: 48.1%

## MDFDDDIPF [P9]
PriA
  binding to PriA: binds with specificity
DNA Pol III (χ)
  affinity and ΔH for χ binding versus (dT)70-bound SSB: very similar
DNA Pol III (χ); previous study
  binding to χ: binds with specificity

B1: SSB-Ct peptide P15 (C-terminal 15 amino acids of E. coli SSB) (peptide, UniProt P0AGE0 164-178, looked up)
peptide: PSNEPPMDFDDDIPF
notes: E. coli SSB, the C-terminal 15 amino acids; Holds none of the PXXP motifs; also called acidic tip peptide; source: synthetic peptide; bought: WatsonBio
[2]
  dH: -3.9 ± 0.1 kcal/mol
[3]
  dH: -2.4 ± 0.2 kcal/mol
[4]
  dH: -6 ± 0.2 kcal/mol
[5]
  dH: -7.8 ± 0.8 kcal/mol
Escherichia coli PriC [6]
  stoichiometry N: 1
Escherichia coli PriC [7]
  dH: -2.7 ± 0.1 kcal/mol
[8]
  stoichiometry N: 1
Escherichia coli PriA [9]
  stoichiometry N: 1
[10]
  stoichiometry N: 1
[11]
  dH: -5.2 ± 0.1 kcal/mol
Escherichia coli PriA [12]
  dH: -9.6 ± 0.3 kcal/mol
[13]
  dH: -9.3 ± 0.1 kcal/mol

B2: (dT)70 (ssDNA)
DNA: TTTTTTTTTTTTTTTTTTTTTTTTTTTTTTTTTTTTTTTTTTTTTTTTTTTTTTTTTTTTTTTTTTTTTT
[14]
  binding result: no binding
SSB (wtSSB)
  binding result: binds
SSB-A
  binding result: binds

B3: SSBΔ120-166 tetramer (natural protein, E. coli, UniProt P0AGE0 1-178, looked up)
chain: MASRGVNKVILVGNLGQDPEVRYMPNGGAVANITLATSESWRDKATGEMKEQTEWHRVVLFGKLAEVASEYLRKGSQVYIEGQLRTRKWTDQSGQDRYTTEVVVNVGGTMQMLGGRQGGGPPMDFDDDIPF
notes: E. coli SSB with residues 120-166 of the IDL deleted, acidic tip kept; All three PXXP motifs deleted; only nine residues of the IDL left; Used apo and in complex with (dT)70
E. coli RecO; apo, 25°C, BTP pH 7.0, 200 mM NaCl, N fixed to 4
  K (observed association equilibrium constant): Not detected
E. coli RecO; apo, 25°C, pH 7.0, 200 mM NaCl
  RecO binding detected by ITC: undetectable; also recorded: could not be detected
RecO
  sedimentation coefficient, SSB alone: 1.3 S
[15]
  Ka: 370000 M⁻¹
  dH (per tip, ΔH/4): -8.1 kcal/mol
[16]
  dH (per tip, ΔH/4): -6 kcal/mol
[17]
  Ka: 373000 M⁻¹
  stoichiometry N: 4.03
[18]
  dH (per tip, ΔH/4): 0 kcal/mol
[19]
  stoichiometry N: 4
